The results in this text go back to paper PMC4228395, “Detrimental effect of the 6 His C-terminal tag on YedY enzymatic activity and influence of the TAT signal sequence on YedY synthesis” (BMC Biochemistry, 2013).

Holding throughout (assay): purified protein
Format in all cases: biochemical, Cereibacter sphaeroides
What all share (conditions): 0.2 mM dithionite-reduced benzyl viologen as electron donor, 100 mM MES pH 6.0, anaerobic

The subject of series [1] is T1, C[S+](C)[O-].
T1 construct: mature periplasmic enzyme, TAT signal peptide cleaved; N-terminal 6His-TEV site (ENLYFQ) kept; plasmid pSM196 in R. sphaeroides dmsA- strain; monomer; molybdenum cofactor

Series [2] relates to T2, C[S+](C)[O-].
T2 construct: mature enzyme, TAT signal peptide cleaved; N-terminal 6His tag cut off by TEV protease, GHM left at N-terminus; pSM196 in R. sphaeroides dmsA- strain; monomer

Series [3] deals with T3, C[S+](C)[O-].
T3 construct: mature enzyme expressed without TAT signal peptide; N-terminal 6His-TEV site kept; plasmid pSM181 in R. sphaeroides dmsA- strain

With “YedY, N-ter tag (+SS) (Cereibacter sphaeroides f. sp. denitrificans)”, the Km (usually the substrate concentration at which the rate is half of its maximum) in the series with C[S+](C)[O-] [1] stood at 71 mM.

As for “YedY, No tag (+SS) (Cereibacter sphaeroides f. sp. denitrificans)”, the Km with C[S+](C)[O-] [2] was 61 ± 7 mM.

Regarding “YedY, N-ter tag (-SS) (Cereibacter sphaeroides f. sp. denitrificans)”, the Km in the series on C[S+](C)[O-] [3] turned out to be 43 ± 6 mM.
